# Reference: the supplement of paper PMC10567573
# B1: DLC1 (parent)
# chain: KRSWEEHVTHWMGQPFNSDDRNTA
# Variants of: B1
# Experiment: protein stability index of a GFP-peptide fusion (GPS, HEK-293T) (PSI 1-6); higher = more stable
# Conditions: c terminus: a fixed tail appended
# 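Further: lentivirally expressed fusions sorted by FACS into six bins by GFP to DsRed ratio, PSI derived from sequencing read proportions per bin multiplied by bin number.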
row,Variant,protein stability index
1,KRSWEEHVTHWMGQPYNSDDRNTA,2.69
2,KRSWEEHVTHWMGQPWNSDDRNTA,2.35
3,KRSWEEHVTHWMGQPVNSDDRNTA,3.34
4,KRSWEEHVTHWMGQPMNSDDRNTA,2.94
5,KRSWEEHVTHWMGQPQNSDDRNTA,2.41
6,KRSWEEHVTHWMGQPDNSDDRNTA,2.59
7,KRSWEEHVTHWMGQPCNSDDRNTA,2.66
8,KRSWEEHVTHWMGQPRNSDDRNTA,2.27
9,KRSWEEHVTHWMGQPGNSDDRNTA,3.14
10,KRSWEEHVTHWMGQPKNSDDRNTA,2.97
11,KRSWEEHVTHWMGQPHNSDDRNTA,2.77
12,KRSWEEHVTHWMGQPLNSDDRNTA,3.55
13,KRSWEEHVTHWMGQPPNSDDRNTA,2.68
14,KRSWEEHVTHWMGQPINSDDRNTA,2.63
15,KRSWEEHVTHWMGQPANSDDRNTA,2.54
16,KRSWEEHVTHWMGQPSNSDDRNTA,3.07
17,KRSWEEHVTHWMGQPTNSDDRNTA,2.37
18,KRSWEEHVTHWMGQPNNSDDRNTA,3.62
19,KRSWEEHVTHWMGQPENSDDRNTA,3.08
20,KRSWEEHVTHWMRQPFNSDDRNTA,2.23
21,KRSWEEHVTHWMQQPFNSDDRNTA,2.44
22,KRSWEEHVTHWMWQPFNSDDRNTA,1.95
23,KRSWEEHVTHWMYQPFNSDDRNTA,2.08
24,KRSWEEHVTHWMFQPFNSDDRNTA,1.82

row,Variant,protein stability index
1,KRSWEEHVTHWMKQPFNSDDRNTA,2.13
2,KRSWEEHVTHWMMQPFNSDDRNTA,2.44
3,KRSWEEHVTHWMCQPFNSDDRNTA,2.1
4,KRSWEEHVTHWMDQPFNSDDRNTA,2.19
5,KRSWEEHVTHWMVQPFNSDDRNTA,3.04
6,KRSWEEHVTHWMNQPFNSDDRNTA,2.14
7,KRSWEEHVTHWMEQPFNSDDRNTA,2.61
8,KRSWEEHVTHWMAQPFNSDDRNTA,2.53
9,KRSWEEHVTHWMLQPFNSDDRNTA,2.73
10,KRSWEEHVTHWMSQPFNSDDRNTA,2.63
11,KRSWEEHVTHWMIQPFNSDDRNTA,2.25
12,KRSWEEHVTHWMTQPFNSDDRNTA,2.18
13,KRSWEEHVTHWMPQPFNSDDRNTA,2.88
14,KRSWEEHVTHWMHQPFNSDDRNTA,2.56
15,KRSWEEHVTHWMGQPFFSDDRNTA,2.77
16,KRSWEEHVTHWMGQPFPSDDRNTA,2.73
17,KRSWEEHVTHWMGQPFGSDDRNTA,2.44
18,KRSWEEHVTHWMGQPFHSDDRNTA,2.73
19,KRSWEEHVTHWMGQPFDSDDRNTA,3.03
20,KRSWEEHVTHWMGQPFESDDRNTA,2.52
21,KRSWEEHVTHWMGQPFYSDDRNTA,2.36
22,KRSWEEHVTHWMGQPFKSDDRNTA,2.1
23,KRSWEEHVTHWMGQPFTSDDRNTA,3.4
24,KRSWEEHVTHWMGQPFCSDDRNTA,2.23

row,Variant,protein stability index
1,KRSWEEHVTHWMGQPFSSDDRNTA,2.63
2,KRSWEEHVTHWMGQPFRSDDRNTA,1.64
3,KRSWEEHVTHWMGQPFVSDDRNTA,2.26
4,KRSWEEHVTHWMGQPFMSDDRNTA,2.15
5,KRSWEEHVTHWMGQPFQSDDRNTA,3.12
6,KRSWEEHVTHWMGQPFASDDRNTA,2.64
7,KRSWEEHVTHWMGQPFISDDRNTA,2.38
8,KRSWEEHVTHWMGQPFLSDDRNTA,2.44
9,KRSWEEHVTHWMGQPFWSDDRNTA,2.77
10,KRSWEEHVTHCMGQPFNSDDRNTA,2.48
11,KRSWEEHVTHGMGQPFNSDDRNTA,2.69
12,KRSWEEHVTHAMGQPFNSDDRNTA,2.97
13,KRSWEEHVTHVMGQPFNSDDRNTA,3.19
14,KRSWEEHVTHRMGQPFNSDDRNTA,3.29
15,KRSWEEHVTHQMGQPFNSDDRNTA,2.12
16,KRSWEEHVTHYMGQPFNSDDRNTA,2.82
17,KRSWEEHVTHFMGQPFNSDDRNTA,2.7
18,KRSWEEHVTHHMGQPFNSDDRNTA,2.95
19,KRSWEEHVTHLMGQPFNSDDRNTA,2.85
20,KRSWEEHVTHIMGQPFNSDDRNTA,3.01
21,KRSWEEHVTHSMGQPFNSDDRNTA,2.53
22,KRSWEEHVTHMMGQPFNSDDRNTA,2.54
23,KRSWEEHVTHTMGQPFNSDDRNTA,2.49
24,KRSWEEHVTHNMGQPFNSDDRNTA,2.26

row,Variant,protein stability index
1,KRSWEEHVTHEMGQPFNSDDRNTA,1.57
2,KRSWEEHVTHDMGQPFNSDDRNTA,2.33
3,KRSWEEHVTHKMGQPFNSDDRNTA,3.61
4,KRSWEEHVTHPMGQPFNSDDRNTA,3.54
5,KRSWEEHVTHWMGQPFNLDDRNTA,2.03
6,KRSWEEHVTHWMGQPFNCDDRNTA,2.34
7,KRSWEEHVTHWMGQPFNVDDRNTA,2.31
8,KRSWEEHVTHWMGQPFNKDDRNTA,3.12
9,KRSWEEHVTHWMGQPFNGDDRNTA,2.76
10,KRSWEEHVTHWMGQPFNRDDRNTA,2.1
11,KRSWEEHVTHWMGQPFNDDDRNTA,3.1
12,KRSWEEHVTHWMGQPFNYDDRNTA,2.26
13,KRSWEEHVTHWMGQPFNEDDRNTA,2.97
14,KRSWEEHVTHWMGQPFNQDDRNTA,3.02
15,KRSWEEHVTHWMGQPFNFDDRNTA,2.27
16,KRSWEEHVTHWMGQPFNTDDRNTA,3.21
17,KRSWEEHVTHWMGQPFNADDRNTA,3.48
18,KRSWEEHVTHWMGQPFNPDDRNTA,3.11
19,KRSWEEHVTHWMGQPFNMDDRNTA,2.92
20,KRSWEEHVTHWMGQPFNHDDRNTA,2.66
21,KRSWEEHVTHWMGQPFNWDDRNTA,2.01
22,KRSWEEHVTHWMGQPFNIDDRNTA,2.61
23,KRSWEEHVTHWMGQIFNSDDRNTA,1.56
24,KRSWEEHVTHWMGQEFNSDDRNTA,3.45

row,Variant,protein stability index
1,KRSWEEHVTHWMGQTFNSDDRNTA,2.29
2,KRSWEEHVTHWMGQKFNSDDRNTA,2.85
3,KRSWEEHVTHWMGQWFNSDDRNTA,2.92
4,KRSWEEHVTHWMGQDFNSDDRNTA,1.63
5,KRSWEEHVTHWMGQMFNSDDRNTA,2.17
6,KRSWEEHVTHWMGQHFNSDDRNTA,2.66
7,KRSWEEHVTHWMGQSFNSDDRNTA,2.3
8,KRSWEEHVTHWMGQLFNSDDRNTA,3.4
9,KRSWEEHVTHWMGQYFNSDDRNTA,2.79
10,KRSWEEHVTHWMGQQFNSDDRNTA,2.1
11,KRSWEEHVTHWMGQGFNSDDRNTA,2.43
12,KRSWEEHVTHWMGQVFNSDDRNTA,2.27
13,KRSWEEHVTHWMGQNFNSDDRNTA,2.48
14,KRSWEEHVTHWMGQRFNSDDRNTA,2.41
15,KRSWEEHVTHWMGQCFNSDDRNTA,2.35
16,KRSWEEHVTHWMGQAFNSDDRNTA,2.95
17,KRSWEEHVTHWMGQFFNSDDRNTA,2.78
18,KRSWEEHVTHWMGQPFNSEDRNTA,2.76
19,KRSWEEHVTHWMGQPFNSNDRNTA,2.69
20,KRSWEEHVTHWMGQPFNSHDRNTA,2.29
21,KRSWEEHVTHWMGQPFNSPDRNTA,2.73
22,KRSWEEHVTHWMGQPFNSADRNTA,2.67
23,KRSWEEHVTHWMGQPFNSSDRNTA,2.6
24,KRSWEEHVTHWMGQPFNSKDRNTA,2.61

row,Variant,protein stability index
1,KRSWEEHVTHWMGQPFNSGDRNTA,2.25
2,KRSWEEHVTHWMGQPFNSMDRNTA,2.88
3,KRSWEEHVTHWMGQPFNSFDRNTA,1.85
4,KRSWEEHVTHWMGQPFNSRDRNTA,2.54
5,KRSWEEHVTHWMGQPFNSIDRNTA,3.12
6,KRSWEEHVTHWMGQPFNSQDRNTA,2.65
7,KRSWEEHVTHWMGQPFNSLDRNTA,2.12
8,KRSWEEHVYHWMGQPFNSDDRNTA,3.04
9,KRSWEEHVWHWMGQPFNSDDRNTA,2.67
10,KRSWEEHVSHWMGQPFNSDDRNTA,2.38
11,KRSWEEHVVHWMGQPFNSDDRNTA,2.75
12,KRSWEEHVTIWMGQPFNSDDRNTA,1.95
13,KRSWEEHVTSWMGQPFNSDDRNTA,2.73
14,KRSWEEHVTCWMGQPFNSDDRNTA,2.92
15,KRSWEEHVTYWMGQPFNSDDRNTA,1.92
16,KRSWEEHVTMWMGQPFNSDDRNTA,1.99
17,KRSWEEHVTTWMGQPFNSDDRNTA,2.32
18,KRSWEEHVTEWMGQPFNSDDRNTA,3.1
19,KRSWEEHVTVWMGQPFNSDDRNTA,2.16
20,KRSWEEHVTAWMGQPFNSDDRNTA,2.17
21,KRSWEEHVTPWMGQPFNSDDRNTA,3.52
22,KRSWEEHVTQWMGQPFNSDDRNTA,2.56
23,KRSWEEHVTDWMGQPFNSDDRNTA,3.39
24,KRSWEEHVTFWMGQPFNSDDRNTA,1.92

row,Variant,protein stability index
1,KRSWEEHVTKWMGQPFNSDDRNTA,2.53
2,KRSWEEHVTRWMGQPFNSDDRNTA,2.19
3,KRSWEEHVTGWMGQPFNSDDRNTA,2.57
4,KRSWEEHVTNWMGQPFNSDDRNTA,2.58
5,KRSWEEHVTWWMGQPFNSDDRNTA,2.31
6,KRSWEEHVTLWMGQPFNSDDRNTA,2.33
7,KRSWEEHVTHWVGQPFNSDDRNTA,2.73
8,KRSWEEHVTHWDGQPFNSDDRNTA,2.7
9,KRSWEEHVTHWRGQPFNSDDRNTA,2.49
10,KRSWEEHVTHWPGQPFNSDDRNTA,3.67
11,KRSWEEHVTHWQGQPFNSDDRNTA,2.78
12,KRSWEEHVTHWNGQPFNSDDRNTA,2.79
13,KRSWEEHVTHWFGQPFNSDDRNTA,2.94
14,KRSWEEHVTHWHGQPFNSDDRNTA,2.94
15,KRSWEEHVTHWLGQPFNSDDRNTA,2.94
16,KRSWEEHVTHWSGQPFNSDDRNTA,2.57
17,KRSWEEHVTHWAGQPFNSDDRNTA,2.44
18,KRSWEEHVTHWGGQPFNSDDRNTA,2.63
19,KRSWEEHVTHWIGQPFNSDDRNTA,2.53
20,KRSWEEHVTHWEGQPFNSDDRNTA,2.32
21,KRSWEEHVTHWYGQPFNSDDRNTA,3.21
22,KRSWEEHVTHWCGQPFNSDDRNTA,2.97
23,KRSWEEHVTHWTGQPFNSDDRNTA,3.34
24,KRSWEEHVTHWWGQPFNSDDRNTA,1.94

row,Variant,protein stability index
1,KRSWEEHVTHWKGQPFNSDDRNTA,2.98
2,KRSWEEHVTHWMGCPFNSDDRNTA,3.01
3,KRSWEEHVTHWMGMPFNSDDRNTA,2.34
4,KRSWEEHVTHWMGKPFNSDDRNTA,2.82
5,KRSWEEHVTHWMGFPFNSDDRNTA,2.65
6,KRSWEEHVTHWMGEPFNSDDRNTA,1.71
7,KRSWEEHVTHWMGRPFNSDDRNTA,3.47
8,KRSWEEHVTHWMGVPFNSDDRNTA,3.15
9,KRSWEEHVTHWMGNPFNSDDRNTA,2.75
10,KRSWEEHVTHWMGWPFNSDDRNTA,2.03
11,KRSWEEHVTHWMGDPFNSDDRNTA,2.69
12,KRSWEEHVTHWMGGPFNSDDRNTA,2.29
13,KRSWEEHVTHWMGSPFNSDDRNTA,2.37
14,KRSWEEHVTHWMGIPFNSDDRNTA,2.44
15,KRSWEEHVTHWMGHPFNSDDRNTA,2.36
16,KRSWEEHVTHWMGLPFNSDDRNTA,2.64
17,KRSWEEHVTHWMGAPFNSDDRNTA,3.23
18,KRSWEEHVTHWMGTPFNSDDRNTA,2.31
19,KRSWEEHVTHWMGPPFNSDDRNTA,2.84
20,KRSWEEHVTHWMGYPFNSDDRNTA,2.6
